Laboratory results published in the supplement of paper PMC7877785.
± gives the uncertainty stated by the source.

Assay: self-splicing fitness, log relative to wild type (ln ratio); higher = more splicing; Tetrahymena group I intron in knt gene, E. coli kanamycin selection, DiMSum; sequences stand for … in CUCUCU…GGAGGGAAAAGUUAUCAGGCAUGCACCUGGUAGCUAGUCUUUAAACCAAUAGAUUGCAUCGGUUUAAAAGGCAAGACCGUCAAAUUGCGGGAAAGGGGUCAACAGCCGUUCAGUACCAAGUCUCAGGGGAAACUUUGAGAUGGCCUUGCAAAGGGUAUGGUAAUAAGCUGACGGACAUGGUCCUAACCACGCAGCCAAGUCCUAAGUCAACAGAUCUUCUGUUGAUAUGGAUGCAGUUCACAGACUAAAUGUCGGUCGGGGAAGAUGUAUUCUUCUCAUAAGAUAUAGUCGGACCUCUCCUUAAUGGGAGCUAGCGGAUGAAGUGAUGCAACACUGGAGCCGCUGGGAACUAAUUUGUAUGCGAAAGUAUAUUGAUUAGUUUUGGAGUACUCGUGGUCG
Outline: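 Library with all eight P1ex-region intron nucleotides randomised, intron inside the knt kanamycin-resistance gene on pET-22b(+), in E. coli BL21(DE3). Cells grew overnight at 37°C or 30°C on LB agar with or without 25 μg/mL kanamycin (plus 100 μg/mL carbenicillin, 50 μM IPTG, 0.2% rhamnose), in six replicate transformations. Pooled colonies were amplicon-sequenced on Illumina HiSeq 2500. DiMSum fitness is the error-weighted combination of wild-type-normalised replicate fold changes, kanamycin versus none.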

Row | Sequence | self-splicing fitness (ln) (30 °C) | self-splicing fitness (ln) (37 °C)
1 | CCCCAGCAAUAUUACGAAGG | -4.06 ± 0.17 | -2.51 ± 0.15
2 | AGCAAGCAAUAUUACGCUCG | -2.82 ± 0.27 | 
3 | GAUCAGCAAUAUUACGACGA | -0.224 ± 0.13 | 0.262 ± 0.14
4 | UGUAAGCAAUAUUACGCUGU | -3.43 ± 0.18 | -2.07 ± 0.18
5 | GCACAGCAAUAUUACGAAUU | -1.19 ± 0.077 | -0.471 ± 0.085
6 | ACAAAGCAAUAUUACGCGAC | -2.02 ± 0.11 | -1.16 ± 0.12
7 | AGAAAGCAAUAUUACGAUAA | -1.21 ± 0.054 | -0.539 ± 0.073
8 | UUGAAGCAAUAUUACGUCGG | 0.235 ± 0.075 | -0.024 ± 0.084
9 | GUAUAGCAAUAUUACGCGGU |  | -2.53 ± 0.44
10 | ACUCAGCAAUAUUACGACUA | -0.633 ± 0.12 | -0.128 ± 0.12
11 | GAGGAGCAAUAUUACGGCGA | -1.1 ± 0.23 | -0.687 ± 0.2
12 | GGAGAGCAAUAUUACGUAGA | -4.01 ± 0.2 | -2.05 ± 0.15
13 | CGAUAGCAAUAUUACGAGUG | -0.68 ± 0.08 | -0.335 ± 0.096
14 | GGACAGCAAUAUUACGUUUU | -1.06 ± 0.061 | -0.21 ± 0.073
15 | UGUAAGCAAUAUUACGGUUC |  | -2.92 ± 0.31
16 | CUGUAGCAAUAUUACGAUGC | -2.62 ± 0.17 | 
17 | CCGCAGCAAUAUUACGUGUU | -3.84 ± 0.14 | -3.1 ± 0.21
18 | CGGUAGCAAUAUUACGGUGA | -3.76 ± 0.41 | -0.848 ± 0.17
19 | UCAAAGCAAUAUUACGAUCU | -2.82 ± 0.13 | -0.778 ± 0.12
20 | AGAUAGCAAUAUUACGUUCG | -0.335 ± 0.1 | 0.123 ± 0.14
21 | AGCUAGCAAUAUUACGCAAA | -1.8 ± 0.18 | -2.24 ± 0.24
22 | UAGGAGCAAUAUUACGACGA | -1.21 ± 0.2 | -0.888 ± 0.28
23 | UCUAAGCAAUAUUACGUCAU | -3.45 ± 0.2 | -2.4 ± 0.16
24 | GCUGAGCAAUAUUACGCAUG | -2.68 ± 0.13 | -1.92 ± 0.17
25 | AACAAGCAAUAUUACGGUGC | -3.67 ± 0.16 | -2.04 ± 0.12

Row | Sequence | self-splicing fitness (ln) (30 °C) | self-splicing fitness (ln) (37 °C)
26 | GCCCAGCAAUAUUACGGGGU | -3.84 ± 0.19 | -2.77 ± 0.24
27 | GUAUAGCAAUAUUACGGCCA | -0.388 ± 0.23 | 0.0249 ± 0.18
28 | AACGAGCAAUAUUACGUAGU | -3.97 ± 0.15 | -2.24 ± 0.15
29 | UUGAAGCAAUAUUACGAGGG | -1.6 ± 0.17 | -1.37 ± 0.24
30 | GGCUAGCAAUAUUACGAUGG |  | -2.46 ± 0.23
31 | CUGGAGCAAUAUUACGGAGG |  | -2.18 ± 0.36
32 | GUCGAGCAAUAUUACGUACG | -2.29 ± 0.26 | -2.44 ± 0.41
33 | ACGAAGCAAUAUUACGCCGG | -0.858 ± 0.11 | -0.467 ± 0.11
34 | ACGGAGCAAUAUUACGUCCC | -1.47 ± 0.25 | -0.893 ± 0.2
35 | ACUAAGCAAUAUUACGAAUC | -3.41 ± 0.21 | -1.05 ± 0.17
36 | ACCCAGCAAUAUUACGUACG | -2.2 ± 0.14 | -1.71 ± 0.16
37 | CAAGAGCAAUAUUACGAGCC | -4.42 ± 0.34 | -2.31 ± 0.32
38 | UAACAGCAAUAUUACGGCGA | -0.267 ± 0.077 | -0.198 ± 0.08
39 | AGGUAGCAAUAUUACGUAAC | -2.092 ± 0.019 | -1.18 ± 0.035
40 | AGACAGCAAUAUUACGAUCC | -0.233 ± 0.083 | -0.102 ± 0.11
41 | CUAUAGCAAUAUUACGCGAG | -1.85 ± 0.29 | 0.335 ± 0.21
42 | CCAAAGCAAUAUUACGGGGC | -3.09 ± 0.19 | -2.93 ± 0.27
43 | CGAAAGCAAUAUUACGAAAC | -2.85 ± 0.19 | -2.14 ± 0.21
44 | AGAUAGCAAUAUUACGGGCA | -1.12 ± 0.13 | 0.0415 ± 0.12
45 | UGUAAGCAAUAUUACGACUA | 0.00851 ± 0.12 | 0.0364 ± 0.14
46 | GUUGAGCAAUAUUACGAUCC | -0.364 ± 0.16 | 0.0175 ± 0.28
47 | CAUCAGCAAUAUUACGCUCC | -2.75 ± 0.24 | -2.3 ± 0.28
48 | ACGGAGCAAUAUUACGAAAC |  | -1.46 ± 0.31
49 | GAAGAGCAAUAUUACGACAC | -1.1 ± 0.31 | 0.351 ± 0.33
50 | CAUCAGCAAUAUUACGCACU | -1.99 ± 0.092 | -1.17 ± 0.098
